Source: paper PMC3295773

Columns and labels:
[1] = biological target: complexin 2 (pig (endogenous in boar sperm)); experiment: SDS-resistant complexes on SDS-PAGE, Western blot (bands of the same size); membrane cavitates of bicarbonate-capacitated boar sperm pre-incubated with 0-4 mM CaCl2 and 5 uM Ca2+ ionophore at 37 C for 20 min; non-reducing conditions; blot for complexin 1/2; most complexin left the 95 kDa complex as Ca2+ rose
[2] = biological target: complexin 2 (pig (endogenous in boar sperm)); experiment: SDS-resistant complexes on SDS-PAGE, Western blot (bands of the same size); boar sperm incubated with bicarbonate (with or without Ca2+ ionophore), lysed in 1% Triton X-100 on ice, sucrose gradient fractions 1-13; non-reducing SDS-PAGE; blots for complexin 1/2, syntaxin 3, SNAP 23, VAMP 2, syntaxin 1B, VAMP 3
[3] = biological target: complexin 2 (pig (endogenous in boar sperm)); experiment: SDS-resistant complexes on SDS-PAGE, Western blot (bands of the same size); whole sperm lysate, remaining head fraction and mixed vesicles of boar sperm treated with bicarbonate and 5 uM Ca2+ ionophore A23187; 35 ug crude protein a lane; non-reducing (RT, no reducing agent) or reducing (100 C, 10 min, 0.1 M DTT) conditions

stoichiometry N [1]: 2
stoichiometry N [2]: 2
stoichiometry N [3]: 2
Substance: complexin 2 (natural protein)
